Legend:
[1] = test system: cells of B-cellular lymphoma Raji; assay: Suppression of growth of Raji cells in vitro, [H3]-thymidine incorporation; format: cell-based, human; conditions: 12 hours with AFP, dose-dependent, FIG. 5
Description: The functional activity of rAFP and the modified forms thereof were determined according to its capability of suppressing the growth of cells of B-cellular lymphoma Raji in the culture in vitro, as earlier described (Semenkova, L. 1997, Tumor Biol. 18, 261-274; Dudich E. I., et al., 1998, Tumor Biol. 198, 30-40). Preliminarily washed by a fresh medium, Raji cells were placed into each cell of a 96-alverolar plate according to 5×10^3 in 0.1 ml of a medium RPMI-1640 in the presence of a 10% fetal calf serum, then different doses of AFP were added for 12 hours. Proliferation of the cells was measured by a standard method by the introduction of [H^3]-thymidine during the last 4 hours of culturing. For comparison, the dose-dependent reactivity was studies for two samples of AFP of embryonal origin embrAFP and yeast rAFP (FIG. 5). […] Similarly, in order to determine the activity to preparations on the base of AFP in vitro, any other lines of cancer cells may be used that are sensitive to the suppressive action of AFP, such as human hepatocarcinoma HepG2, breast cancer MCF-7, prostate cancer LnCap, myeloblastoma U-937 and others (Semenkova, L. 1997, Tumor Biol. 18, 261-274; Dudich E. I., et al., 1998, Tumor Biol. 198, 30-40).

[2] = test system: PHA-activated CBA thymocytes; assay: PHA-mediated thymocyte proliferation in vitro; format: cell-based, mouse CBA; conditions: AFP alone, 24 hrs after 48 hrs PHA 1.5 μg/ml
resting mouse T-cells = assay: Control resting splenocytes / resting T-cells treated with rhAFP/CsA; format: cell-based, mouse (CBA)
Description: Control resting splenocytes CBA were treated for the same time with combination of rhAFP/CysA (FIG. 10C). Cytostatic effects were assessed by monitoring of cell proliferation by [^3H]-thymidine incorporation.

[3] = test system: Human mesenchymal stromal/stem adipose tissue cells (ATSC); assay: Proliferation of adipose tissue stem cells (ATSC), [H3]-thymidine incorporation; format: cell-based; conditions: for Cell proliferation (cpm × 103): 24 h
Source text: Human mesenchymal stromal/stem adipose tissue cells (ATSC) were isolated either from liposuction aspirates or from products of the fat deposit removed during the cosmetic surgery. The tissue was mechanically split to the fragments of several cubic millimeters. A suspension of tissue was mixed with type I Collagenase (200 U/ml) and Dispase (30 U/ml) (Sigma) in solution of 50% DMEM (Sigma, D-5523), 50% F12 (Sigma, N-6760), 1% BSA (Sigma), /100 U/ml penicillin and 100 U/ml ampicilline in 1:1 v/v and incubated for 1 hr at 37° C. to with mixing, following by filtering through 40 μm membrane (BD Falcon). The suspension was centrifuged 5 min at 200 g, upper layer was removed, and pellet consisting of separate non-adipose cells was treated by erythrocyte lysis buffer (154 mM NH4Cl, 10 mM KHCO3, 0.1 mM EDTA) during 5 min at 37° C., following by 5 min centrifugation at 300 g. Cell pellet was resuspended in DMEM/10% FBS. Resulting cells were cultured in the same medium in plastic flasks in CO2 incubator (37° C., 5% CO2). When reaching confluence, the cells were passaged by treatment the cell monolayer with 0.25% trypsin/0.02% EDTA. For the purpose of long-time storage, the cells were frozen in the culture medium supplemented by 15-20% FBS and 10% DMSO. Adipose cells were cultivated in DMEM/F12 medium with the addition 10% FBS 0.1% ECGF on 60 mm Petri dishes at 37° C. and 5% CO2. For the passages 0.25% trypsin/0.02% EDTA. solution was used. For the purpose of long-time storage, the cells were frozen in the culture medium supplemented by 15-20% FBS and 10% DMSO. Adipose tissue stem cells (ATSC) were cultivated in DMEM/F12 medium with the addition 10% FBS 0.1% ECGF on 60 mm Petri dishes at 37° C. and 5% CO2. For the passages 0.25% trypsin/0.02% EDTA solution was used. For the purpose of long-time storage, the cells were frozen in the culture medium supplemented by 15-20% FBS and 10% DMSO.
Human donor ATSC were isolated and cultivated as described above, the cells from 2-4 passage were taken in the study. ADSC (3×10^4) were plated in flat-bottom 96-well plates (Costar, USA) in complete medium with 10% FCS, after 18 h the medium was changed onto the medium with 5% human sera and cells were treated with increasing amounts of rhAFP (0-500 μg/ml) for 24 h. The direct effect of rhAFP on proliferation of ATSC was measured by [H^3]-thymidine incorporation. For the last 4 h 1 μCi of methyl-[H^3]-thymidine was added to the cultures.

B1: rhAFP: recombinant human alpha-fetoprotein secreted by yeast Saccharomyces cerevisiae YBS723/pKX, glycosylated, mature human AFP sequence SEQ ID NO:2 (protein, listed as Homo sapiens)
chain: TLHRNEYGIASILDSYQCTAEISLADLATIFFAQFVQEATYKEVSKMVKDALTAIEKPTGDEQSSGCLENQLPAFLEELCHEKEILEKYGHSDCCSQSEEGRHNCFLAHKKPTPASIPLFQVPEPVTSCEAYEEDRETFMNKFIYEIARRHPFLYAPTILLWAARYDKIIPSCCKAENAVECFQTKAATVTKELRESSLLNQHACAVMKNFGTRTFQAITVTKLSQKFTKVNFTEIQKLVLDVAHVHEHCCRGDVLDCLQDGEKIMSYICSQQDTLSNKITECCKLTTLERGQCIIHAENDEKPEGLSPNLNRFLGDRDFNQFSSGEKNIFLASFVHEYSRRHPQLAVSVILRVAKGYQELLEKCFQTENPLECQDKGEEELQKYIQESQALAKRSCGLFQKLGEYYLQNAFLVAYTKKAPQLTSSELMAITRKMAATAATCCQLSEDKLLACGEGAADIIIGHLCIRHEMTPVNPGVGQCCTSSYANRRPCFSSLVVDETYVPPAFSDDKFIFHKDLCQAQGVALQTMKQEFLINLVKQKPQITEEQLEAVIADFSGLLEKCCQGQEQEVCFAEEGQKLISKTRAALGV
modifications: yeast glycosylation
[1]
  cytostatic activity, inhibition of growth of Raji cells: expressed cytostatic activity
[2]
  proliferation of PHA-stimulated thymocytes in response to AFP: distinct dose-dependent growth suppression
Resting mouse T-cells; AFP as modulator of CsA-mediated signals
  suppression of resting immune cells: does not suppress resting immune cells
Resting mouse T-cells; FIG. 10C
  effect of rhAFP on CsA treatment of resting mouse T-cells: cancellation of the cytotoxic effects of CsA treatment
[3]; 300 μg/ml of rhAFP, compared to untreated control
  Maximum effect on proliferation of ATSC: 50%
[3]; AFP 0.100 mg/ml, 2 passage
  Cell proliferation, change versus control: (+16%)
[3]; AFP 0.100 mg/ml, 2 passage, control 17.8 ± 6.4
  Cell proliferation (cpm × 103): 20.7 ± 0.7 cpm × 103
[3]; AFP 0.100 mg/ml, 3 passage
  Cell proliferation, change versus control: (+7%)
[3]; AFP 0.100 mg/ml, 3 passage, control 16.5 ± 1.5
  Cell proliferation (cpm × 103): 17.7 ± 5.3 cpm × 103
[3]; AFP 0.100 mg/ml, 4 passage
  Cell proliferation, change versus control: (+20%)
[3]; AFP 0.100 mg/ml, 4 passage, control 0.83 ± 0.1
  Cell proliferation (cpm × 103): 1.0 ± 0.08 cpm × 103
[3]; AFP 0.300 mg/ml, 2 passage
  Cell proliferation, change versus control: (+44%)
[3]; AFP 0.300 mg/ml, 2 passage, control 17.8 ± 6.4
  Cell proliferation (cpm × 103): 25.8 ± 4.1 cpm × 103
[3]; AFP 0.300 mg/ml, 3 passage
  Cell proliferation, change versus control: (+35%)
[3]; AFP 0.300 mg/ml, 3 passage, control 16.5 ± 1.5
  Cell proliferation (cpm × 103): 22.4 ± 1.4 cpm × 103
[3]; AFP 0.300 mg/ml, 4 passage
  Cell proliferation, change versus control: (+50%)
[3]; AFP 0.300 mg/ml, 4 passage, control 0.83 ± 0.1
  Cell proliferation (cpm × 103): 1.2 ± 0.24 cpm × 103
